Data on five molecules can be found in paper PMC4591472 (Microbiology (Reading, England), 2015).

Series [1] addresses T1, FloT tagged to the T25 catalytic domain of adenylate cyclase (B. subtilis NCIB3610, UniProt O32076 1-509).
T1 sequence (looked up): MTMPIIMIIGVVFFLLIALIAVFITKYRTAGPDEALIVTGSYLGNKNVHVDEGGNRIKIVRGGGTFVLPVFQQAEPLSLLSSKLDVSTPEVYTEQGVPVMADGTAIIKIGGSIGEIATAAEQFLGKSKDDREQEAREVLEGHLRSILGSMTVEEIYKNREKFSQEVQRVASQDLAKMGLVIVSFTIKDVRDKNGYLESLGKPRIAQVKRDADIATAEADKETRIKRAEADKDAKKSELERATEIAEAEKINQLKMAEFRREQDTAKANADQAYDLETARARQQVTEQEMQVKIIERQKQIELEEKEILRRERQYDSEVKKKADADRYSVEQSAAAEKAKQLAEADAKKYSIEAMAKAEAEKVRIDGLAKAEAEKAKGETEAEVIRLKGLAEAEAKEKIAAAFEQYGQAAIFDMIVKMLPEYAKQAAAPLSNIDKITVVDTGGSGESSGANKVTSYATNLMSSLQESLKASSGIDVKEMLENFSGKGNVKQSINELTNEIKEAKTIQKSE
Briefly: two-hybrid.

The series “two-hybrid” deals with the molecule itself. The series can be described thus: two-hybrid.
The series “native gel or EMSA” deals with the molecule itself. Briefly: native gel or EMSA.

B1: KinC, bacterial two-hybrid fusion (enzyme, B. subtilis NCIB3610, UniProt P39764 1-428, looked up)
chain: MRKYQARIISIILAMIFIMFWDYLFYFIGKNPINWPVDIVYTAVTLVSVWMLAYYIDEKQQLVKKMKDNEWKYKQLSEEKNRIMDNLQEIVFQTNAKGEITYLNQAWASITGFSISECMGTMYNDYFIKEKHVADHINTQIQNKASSGMFTAKYVTKNGTIFWGEVHYKLYYDRDDQFTGSLGTMSDITERKEAEDELIEINERLARESQKLSITSELAAGIAHEVRNPLTSVSGFLQIMKTQYPDRKDYFDIIFSEIKRIDLVLSELLLLAKPQAITFKTHQLNEILKQVTTLLDTNAILSNIVIEKNFKETDGCMINGDENQLKQVFINIIKNGIEAMPKGGVVTISTAKTASHAVISVKDEGNGMPQEKLKQIGKPFYSTKEKGTGLGLPICLRILKEHDGELKIESEAGKGSVFQVVLPLKSDS
In the case of B1, the β-galactosidase activity in series [1] was above 3500 Miller Units; in “two-hybrid”, around 1500 Miller Units.

B2: KinC-CFP (enzyme, B. subtilis, UniProt P39764 1-428, looked up)
chain: B1 chain
B2: the “stoichiometry N” value in “native gel or EMSA” worked out at 2.

B3: KinD, bacterial two-hybrid fusion (enzyme, B. subtilis NCIB3610, UniProt O31671 1-506, looked up)
chain: MLERCKLKILKGACGRVKLYIILVVIPAIVISFFVYEKEKDTIAAEHKQEASVLLNLHRNKINYLIGETMARMTSLSIAIDRPVDIKKMQSILEKTFDSEPRFSGLYFLNAKGDVTASTTELKTKVNLADRSFFIKAKETKKTVISDSYSSRITGQPIFTICVPVLDSKRNVTDYLVAAIQIDYLKNLINLLSPDVYIEVVNQDGKMIFASGQASHAEDQKPVSGYLDDISWNMKVYPNPVTIEELSKSLVLPLSCIIVLLNILFILVLYYLLKRQTQLERSENEAQKLELIGTLAASTAHEIRNPLTGISGFIQLLQKKYKGEEDQLYFSIIEQEIKRINQIVSEFLVLGKPTAEKWELNSLQDIIGEIMPIIYSEGNLYNVEVELQYLTEQPLLVKCTKDHIKQVILNVAKNGLESMPEGGKLTISLGALDKKAIIKVVDNGEGISQEMLDHIFLPFVTSKEKGTGLGLVVCKRIVLMYGGSIHIESEVRRGTEVTITLPVSAS
In the case of B3, the β-galactosidase activity in series [1] was around 1100 Miller Units; in the series “two-hybrid”, around 1500 Miller Units.

B4: ResE, bacterial two-hybrid fusion (enzyme, B. subtilis NCIB3610, UniProt P35164 1-589, looked up)
chain: MKFWKSVVGKLWFTILSLVLIVLFILTVLLLEFIENYHVEEAENDLTQLANKVAVILENHEDQALARSITWELADNLTSIAIIQDEKNHWYSPNDKNRLSSITVEQIQHDKDLNKALKDHKKVSKRTGLSDTDTDNERLIVGVPYEKDGKKGMVFLSQSLLAVKDTTKHTTRYIFLAAGIAIVLTTFFAFFLSSRVTYPLRKMREGAQDLAKGKFDTKIPILTQDEIGELATAFNQMGRQLNFHINALNQEKEQLSNILSSMADGVITINIDGTILVTNPPAERFLQAWYYEQNMNIKEGDNLPPEAKELFQNAVSTEKEQMIEMTLQGRSWVLLMSPLYAESHVRGAVAVLRDMTEERRLDKLREDFIANVSHELRTPISMLQGYSEAIVDDIASSEEDRKEIAQIIYDESLRMGRLVNDLLDLARMESGHTGLHYEKINVNEFLEKIIRKFSGVAKEKNIALDHDISLTEEEFMFDEDKMEQVFTNLIDNALRHTSAGGSVSISVHSVKDGLKIDIKDSGSGIPEEDLPFIFERFYKADKARTRGRAGTGLGLAIVKNIVEAHNGSITVHSRIDKGTTFSFYIPTKR
The molecule B4 showed a β-galactosidase activity in series [1] of around 1600 Miller Units.

B5: KinB, bacterial two-hybrid fusion (enzyme, B. subtilis NCIB3610, UniProt Q08430 1-428, looked up)
chain: MEILKDYLLHICFILFPILLYQVFWLGKPAILVPKINSGLVTLFACGASVLCIIFPIHEMDYIQYGLQMIPVIICLFYISTASGLTVAASVLCFELLFYEPSAMFVFTLLPFLIIIPILFQKKWPFMSKAKKLLLSLLISCVEIFLFFASSWILSALNILNFQKSGIFVYEAAVSGLFRSSVLLLSIYIIESIAENIALRSQLIHSEKMTIVSELAASVAHEVRNPLTVVRGFVQLLFNDETLQNKSSADYKKLVLSELDRAQGIITNYLDMAKQQLYEKEVFDLSALIKETSSLMVSYANYKSVTVEAETEPDLLIYGDATKLKQAVINLMKNSIEAVPHGKGMIHISAKRNGHTIMINITDNGVGMTDHQMQKLGEPYYSLKTNGTGLGLTVTFSIIEHHHGTISFNSSFQKGTTVTIKLPADLPH
With B5, the β-galactosidase activity in “two-hybrid” is around 5500 Miller Units.
